Assay results taken from article PMC3167633.
Where a chain is given by its changes, count along the chain named.

T1: Haa1(DBD)-His6 (Saccharomyces cerevisiae, UniProt Q12753 1-123)
T1 sequence: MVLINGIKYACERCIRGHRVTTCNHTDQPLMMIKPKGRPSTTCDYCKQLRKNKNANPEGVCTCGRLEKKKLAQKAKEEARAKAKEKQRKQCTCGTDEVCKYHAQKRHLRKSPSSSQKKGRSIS

B1: TPO3 wild-type HRE (GGCGAGGGG) (dsDNA)
DNA 1: TTCTCTGTGCTTGGCGAGGGGTTTACTGGAGCCCAATC
DNA 2: GATTGGGCTCCAGTAAACCCCTCGCCAAGCACAGAGAA
B2: HRE mutant 7 (GGCGAGGAG) (dsDNA)
DNA 1: B1 DNA 1 with G20A
DNA 2: B1 DNA 2 with C19T
B3: HRE mutant 2 (GGCCAGGGG) (dsDNA)
DNA 1: B1 DNA 1 with G16C
DNA 2: B1 DNA 2 with C23G
B4: HRE mutant 1 (AGCGAGGGG) (dsDNA)
DNA 1: B1 DNA 1 with G13A
DNA 2: B1 DNA 2 with C26T
B5: HRE mutant 4 (GGCGAAGGG) (dsDNA)
DNA 1: B1 DNA 1 with G18A
DNA 2: B1 DNA 2 with C21T
B6: HRE mutant 5 (GGCGAGAGG) (dsDNA)
DNA 1: B1 DNA 1 with G19A
DNA 2: B1 DNA 2 with C20T
B7: HRE mutant 6 (GGCGAGGCG) (dsDNA)
DNA 1: B1 DNA 1 with G20C
DNA 2: B1 DNA 2 with C19G
B8: HRE mutant 3 (GGCGCGGGG) (dsDNA)
DNA 1: B1 DNA 1 with A17C
DNA 2: B1 DNA 2 with T22G
B9: HRE mutant 8 (GGCGAGGGA) (dsDNA)
DNA 1: B1 DNA 1 with G21A
DNA 2: B1 DNA 2 with C18T

Target: T1, Haa1(DBD)-His6
Assay: SPR

Binder | Kd
B1 | 2 ± 0.2 nM
B2 | 6780 ± 865 nM
B3 | 4.3 ± 0.3 nM
B4 | 1.9 ± 0.3 nM
B5 | 396 ± 51.1 nM
B6 | 21.4 ± 6.1 nM
B7 | 38.5 ± 4.5 nM
B8 | 13.6 ± 0.9 nM
B9 | 119 ± 3.6 nM
